Measured values as given in patent publication US20090099029A1, “Methods and substrates for conducting assays” (Invitrogen Corporation, priority 2005, published 2009).

B1: FER (protein)
chain: KSGVVLLNPIPKDKKWILSHEDVILGELLGKGNFGEVYKGTLKDKTSVAVKTCKEDLPQELKIKFLQEAKILKQYDHPNIVKLIGVCTQRQPVYIIMELVSGGDFLTFLRRKKDELKLKQLVKFSLDAAAGMLYLESKNCIHRDLAARNCLVGENNVLKISDFGMSRQEDGGVYSSSGLKQIPIKWTAPEALNYGRYSSESDVWSFGILLWETFSLGVCPYPGMTNQQAREQVERGYRMSAPQHCPEDISKIMMKCWDYKPENRPKFSELQKELTIIKRKLT
modifications: left off: a dimerising Fc or GST
B2: FES (protein)
chain: MGFSSELCSPQGHGVLQQMQEAELRLLEGMRKWMAQRVKSDREYAGLLHHMSLQDSGGQSRAISPDSPISQSWAEITSQTEGLSRLLRQHAEDLNSGPLSKLSLLIRERQQLRKTYSEQWQQLQQELTKTHSQDIEKLKSQYRALARDSAQAKRKYQEASKDKDRDKAKDKYVRSLWKLFAHHNRYVLGVRAAQLHHQHHHQLLLPGLLRSLQDLHEEMACILKEILQEYLEISSLVQDEVVAIHREMAAAAARIQPEAEYQGFLRQYGSAPDVPPCVTFDESLLEEGEPLEPGELQLNELTVESVQHTLTSVTDELAVATEMVFRRQEMVTQLQQELRNEEENTHPRERVQLLGKRQVLQEALQGLQVALCSQAKLQAQQELLQTKLEHLGPGEPPPVLLLQDDRHSTSSSEQEREGGRTPTLEILKSHISGIFRPKFSLPPPLQLIPEVQKPLHEQLWYHGAIPRAEVAELLVHSGDFLVRESQGKQEYVLSVLWDGLPRHFIIQSLDNLYRLEGEGFPSIPLLIDHLLSTQQPLTKKSGVVLHRAVPKDKWVLNHEDLVLGEQIGRGNFGEVFSGRLRADNTLVAVKSCRETLPPDLKAKFLQEARILKQYSHPNIVRLIGVCTQKQPIYIVMELVQGGDFLTFLRTEGARLRVKTLLQMVGDAAAGMEYLESKCCIHRDLAARNCLVTEKNVLKISDFGMSREEADGVYAASGGLRQVPVKWTAPEALNYGRYSSESDVWSFGILLWETFSLGASPYPNLSNQQTREFVEKGGRLPCPELCPDAVFRLMEQCWAYEPGQRPSFSTIYQELQSIRKRHR
modifications: left off: small tags and cut ends
B3: JAK3 (protein)
chain: ISSDYELLSDPTPGALAPRDGLWNGAQLYACQDPTIFEERHLKYISQLGKGNFGSVELCRYDPLGDNTGALVAVKQLQHSGPDQQRDFQREIQILKALHSDFIVKYRGVSYGPGRQSLRLVMEYLPSGCLRDFLQRHRARLDASRLLLYSSQICKGMEYLGSRRCVHRDLAARNILVESEAHVKIADFGLAKLLPLDKDYYVVREPGQSPIFWYAPESLSDNIFSRQSDVWSFGVVLYELFTYCDKSCSPSAEFLRMMGCERDVPALCRLLELLEEGQRLPAPPACPAEVHELMKLCWAPSPQDRPSFSALGPQLDMLWSGSRGCETHAFTAHPEGKHHSLSFS
modifications: left off: a dimerising Fc or GST
B4: MATK(HYL) (protein)
chain: MQGHFPAERREGRPRRGTRGQQQLLVSPRFLRAWHPPPVSARMPTRRWAPGTQCITKCEHTRPKPGELAFRKGDVVTILEACENKSWYRVKHHTSGQEGLLAAGALREREALSADPKLSLMPWFHGKISGQEAVQQLQPPEDGLFLVRESARHPGDYVLCVSFGRDVIHYRVLHRDGHLTIDEAVFFCNLMDMVEHYSKDKGAICTKLVRPKRKHGTKSAEEELARAGWLLNLQHLTLGAQIGEGEFGAVLQGEYLGQKVAVKNIKCDVTAQAFLDETAVMTKMQHENLVRLLGVILHQGLYIVMEHVSKGNLVNFLRTRGRALVNTAQLLQFSLHVAEGMEYLESKKLVHRDLAARNILVSEDLVAKVSDFGLAKAERKGLDSSRLPVKWTAPEALKHGKFTSKSDVWSFGVLLWEVFSYGRAPYPKMSLKEVSEAVEKGYRMEPPEGCPGPVHVLMSSCWEAEPARRPPFRKLAEKLARELRSAGAPASVSGQDADGSTSPRSQEP
modifications: left off: small tags and cut ends
B5: PTK2(FAK) (protein)
chain: MAAAYLDPNLNHTPNSSTKTHLGTGMERSPGAMERVLKVFHYFESNSEPTTWASIIRHGDATDVRGIIQKIVDSHKVKHVACYGFRLSHLRSEEVHWLHVDMGVSSVREKYELAHPPEEWKYELRIRYLPKGFLNQFTEDKPTLNFFYQQVKSDYMLEIADQVDQEIALKLGCLEIRRSYWEMRGNALEKKSNYEVLEKDVGLKRFFPKSLLDSVKAKTLRKLIQQTFRQFANLNREESILKFFEILSPVYRFDKECFKCALGSSWIISVELAIGPEEGISYLTDKGCNPTHLADFTQVQTIQYSNSEDKDRKGMLQLKIAGAPEPLTVTAPSLTIAENMADLIDGYCRLVNGTSQSFIIRPQKEGERALPSIPKLANSEKQGMRTHAVSVSETDDYAEIIDEEDTYTMPSTRDYEIQRERIELGRCIGEGQFGDVHQGIYMSPENPALAVAIKTCKNCTSDSVREKFLQEALTMRQFDHPHIVKLIGVITENPVWIIMELCTLGELRSFLQVRKYSLDLASLILYAYQLSTALAYLESKRFVHRDIAARNVLVSSNDCVKLGDFGLSRYMEDSTYYKASKGKLPIKWMAPESINFRRFTSASDVWMFGVCMWEILMHGVKPFQGVKNNDVIGRIENGERLPMPPNCPPTLYSLMTKCWAYDPSRRPRFTELKAQLSTILEEEKAQQEERMRMESRRQATVSWDSGGSDEAPPKPSRPGYPSPRSSEGFYPSPQHMVQTNHYQVSGYPGSHGITAMAGSIYPGQASLLDQTDSWNHRPQEIAMWQPNVEDSTVLDLRGIGQVLPTHLMEERLIRQQQEMEEDQRWLEKEERFLKPDVRLSRGSIDREDGSLQGPIGNQHIYQPVGKPDPAAPPKKPPRPGAPGHLGSLASLSSPADSYNEGVKLQPQEISPPPTANLDRSNDKVYENVTGLVKAVIEMSSKIQPAPPEEYVPMVKEVGLALRTLLATVDETIPLLPASTHREIEMAQKLLNSDLGELINKMKLAQQYVMTSLQQEYKKQMLTAAHALAVDAKNLLDVIDQARLKMLGQTRPH
modifications: left off: a dimerising Fc or GST
B6: TEC (protein)
chain: MNFNTILEEILIKRSQQKKKTSPLNYKERLFVLTKSMLTYYEGRAEKKYRKGFIDVSKIKCVEIVKNDDGVIPCQNKYPFQVVHDANTLYIFAPSPQSRDLWVKKLKEEIKNNNNIMIKYHPKFWTDGSYQCCRQTEKLAPGCEKYNLFESSIRKALPPAPETKKRRPPPPIPLEEEDNSEEIVVAMYDFQAAEGHDLRLERGQEYLILEKNDVHWWRARDKYGNEGYIPSNYVTGKKSNNLDQYEWYCRNMNRSKAEQLLRSEDKEGGFMVRDSSQPGLYTVSLYTKFGGEGSSGFRHYHIKETTTSPKKYYLAEKHAFGSIPEIIEYHKHNAAGLVTRLRYPVSVKGKNAPTTAGFSYEKWEINPSELTFMRELGSGLFGVVRLGKWRAQYKVAIKAIREGAMCEEDFIEEAKVMMKLTHPKLVQLYGVCTQQKPIYIVTEFMERGCLLNFLRQRQGHFSRDVLLSMCQDVCEGMEYLERNSFIHRDLAARNCLVSEAGVVKVSDFGMARYVLDDQYTSSSGAKFPVKWCPPEVFNYSRFSSKSDVWSFGVLMWEVFTEGRMPFEKYTNYEVVTMVTRGHRLYQPKLASNYVYEVMLRCWQEKPEGRPSFEDLLRTIDELVECEETFGR
modifications: left off: small tags and cut ends
B7: ZAP70 (protein)
chain: MPDPAAHLPFFYGSISRAEAEEHLKLAGMADGLFLLRQCLRSLGGYVLSLVHDVRFHHFPIERQLNGTYAIAGGKAHCGPAELCEFYSRDPDGLPCNLRKPCNRPSGLEPQPGVFDCLRDAMVRDYVRQTWKLEGEALEQAIISQAPQVEKLIATTAHERMPWYHSSLTREEAERKLYSGAQTDGKFLLRPRKEQGTYALSLIYGKTVYHYLISQDKAGKYCIPEGTKFDTLWQLVEYLKLKADGLIYCLKEACPNSSASNASGAAAPTLPAHPSTLTHPQRRIDTLNSDGYTPEPARITSPDKPRPMPMDTSVYESPYSDPEELKDKKLFLKRDNLLIADIELGCGNFGSVRQGVYRMRKKQIDVAIKVLKQGTEKADTEEMMREAQIMHQLDNPYIVRLIGVCQAEALMLVMEMAGGGPLHKFLVGKREEIPVSNVAELLHQVSMGMKYLEEKNFVHRDLAARNVLLVNRHYAKISDFGLSKALGADDSYYTARSAGKWPLKWYAPECINFRKFSSRSDVWSYGVTMWEALSYGQKPYKKMKGPEVMAFIEQGKRMECPPECPPELYALMSDCWIYKWEDRPDFLTVEQRMRACYYSLASKVEGPPGSTQKAEAACA
modifications: left off: small tags and cut ends
B8: ADRBK2(GRK3) (protein, UniProt P35626 1-688, looked up)
G protein-coupled receptor …: MADLEAVLADVSYLMAMEKSKATPAARASKRIVLPEPSIRSVMQKYLAERNEITFDKIFNQKIGFLLFKDFCLNEINEAVPQVKFYEEIKEYEKLDNEEDRLCRSRQIYDAYIMKELLSCSHPFSKQAVEHVQSHLSKKQVTSTLFQPYIEEICESLRGDIFQKFMESDKFTRFCQWKNVELNIHLTMNEFSVHRIIGRGGFGEVYGCRKADTGKMYAMKCLDKKRIKMKQGETLALNERIMLSLVSTGDCPFIVCMTYAFHTPDKLCFILDLMNGGDLHYHLSQHGVFSEKEMRFYATEIILGLEHMHNRFVVYRDLKPANILLDEHGHARISDLGLACDFSKKKPHASVGTHGYMAPEVLQKGTAYDSSADWFSLGCMLFKLLRGHSPFRQHKTKDKHEIDRMTLTVNVELPDTFSPELKSLLEGLLQRDVSKRLGCHGGGSQEVKEHSFFKGVDWQHVYLQKYPPPLIPPRGEVNAADAFDIGSFDEEDTKGIKLLDCDQELYKNFPLVISERWQQEVTETVYEAVNADTDKIEARKRAKNKQLGHEEDYALGKDCIMHGYMLKLGNPFLTQWQRRYFYLFPNRLEWRGEGESRQNLLTMEQILSVEETQIKDKKCILFRIKGGKQFVLQCESDPEFVQWKKELNETFKEAQRLLRRAPKFLNKPRSGTVELPKPSLCHRNSNGL
B9: AKT2 (protein)
chain: MNEVSVIKEGWLHKRGEYIKTWRPRYFLLKSDGSFIGYKERPEAPDQTLPPLNNFSVAECQLMKTERPRPNTFVIRCLQWTTVIERTFHVDSPDEREEWMRAIQMVANSLKQRAPGEDPMDYKCGSPSDSSTTEEMEVAVSKARAKVTMNDFDYLKLLGKGTFGKVILVREKATGRYYAMKILRKEVIIAKDEVAHTVTESRVLQNTRHPFLTALKYAFQTHDRLCFVMEYANGGELFFHLSRERVFTEERARFYGAEIVSALEYLHSRDVVYRDIKLENLMLDKDGHIKITDFGLCKEGISDGATMKTFCGTPEYLAPEVLEDNDYGRAVDWWGLGVVMYEMMCGRLPFYNQDHERLFELILMEEIRFPRTLSPEAKSLLAGLLKKDPKQRLGGGPSDAKEVMEHRFFLSINWQDVVQKKLLPPFKPQVTSEVDTRYFDDEFTAQSITITPPDRYDSLGLLELDQRTHFPQFSYSASIRE
modifications: left off: small tags and cut ends

Test system: kinases of Table 6 on Myelin Basic Protein (MBP)
Experiment: Kinase assay using MBP substrate, ProQ Diamond stain (Table 6)
Assay type: biochemical
Conditions: kinase printed on MBP-coated slide; 20 uM ATP, 30° C.; ProQ Diamond Microarray Stain; graded Strong/Weak/Negative
Procedure, shortened: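 Reactions ran at 30° C. with 20 uM ATP, 4 mM MgCl2 and 5% DMSO in HEPES pH 7.5, inhibitor added or omitted. Kinases had been arrayed onto slide-bound dephosphorylated bovine MBP; phospho-signal read after ProQ Diamond staining.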

Molecule	MBP Kinase Activity
B1	Negative
B2	Negative
B3	Strong
B4	Negative
B5	Negative
B6	Negative
B7	Negative
B8	Negative
B9	Strong
